{"source": "patent US20250188133A1", "about": "“CHIMERIC BACTERIOCINS AND METHOD FOR THE CONTROL OF PSEUDOMONAS” (priority 2022, published 2025)", "test_in_all_cases": "agar disc-diffusion assay", "assay_type_in_all_cases": "cell-based", "key": {"P. aeruginosa 13-18499": {"tested_on": "P. aeruginosa 13-18499", "details": "strain 13-18499; 0.3, 3 and 30 μg of protein spotted on discs on CAA agar lawn, overnight", "in_short": "(§1)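 Lawn: OD595=1.0 culture in CAA, 100× dilution, cotton-swab streak on CAA solid agar 1.5%. Discs 6 mm, 0.3-30 μg pyocin per disc. 37° C overnight; zones scored.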"}, "P. aeruginosa ATCC 29260": {"tested_on": "P. aeruginosa ATCC 29260", "details": "strain ATCC 29260; 0.3, 3 and 30 μg of protein spotted on discs on CAA agar lawn, overnight", "in_short": "as §1"}, "P. aeruginosa BI80": {"tested_on": "P. aeruginosa BI80", "details": "strain BI80; 0.3, 3 and 30 μg of protein spotted on discs on CAA agar lawn, overnight", "in_short": "as §1"}, "P. aeruginosa BR79": {"tested_on": "P. aeruginosa BR79", "details": "strain BR79; 0.3, 3 and 30 μg of protein spotted on discs on CAA agar lawn, overnight", "in_short": "as §1"}, "[1]": {"tested_on": "P. aeruginosa Boston 41501 (ATCC 27853)", "details": "strain Boston; 0.3, 3 and 30 μg of protein spotted on discs on CAA agar lawn, overnight", "in_short": "as §1"}, "P. aeruginosa Bu002": {"tested_on": "P. aeruginosa Bu002", "details": "strain Bu002; 0.3, 3 and 30 μg of protein spotted on discs on CAA agar lawn, overnight", "in_short": "as §1"}, "P. aeruginosa EY76": {"tested_on": "P. aeruginosa EY76", "details": "strain EY76; 0.3, 3 and 30 μg of protein spotted on discs on CAA agar lawn, overnight", "in_short": "as §1"}, "P. aeruginosa HP1": {"tested_on": "P. aeruginosa HP1", "details": "strain HP1; 0.3, 3 and 30 μg of protein spotted on discs on CAA agar lawn, overnight", "in_short": "as §1"}, "P. aeruginosa HP41": {"tested_on": "P. aeruginosa HP41", "details": "strain HP41; 0.3, 3 and 30 μg of protein spotted on discs on CAA agar lawn, overnight", "in_short": "as §1"}, "P. aeruginosa HP6": {"tested_on": "P. aeruginosa HP6", "details": "strain HP6; 0.3, 3 and 30 μg of protein spotted on discs on CAA agar lawn, overnight", "in_short": "as §1"}, "P. aeruginosa HP75": {"tested_on": "P. aeruginosa HP75", "details": "strain HP75; 0.3, 3 and 30 μg of protein spotted on discs on CAA agar lawn, overnight", "in_short": "as §1"}, "P. aeruginosa NCTC 13437": {"tested_on": "P. aeruginosa NCTC 13437", "details": "strain NCTC 13437; 0.3, 3 and 30 μg of protein spotted on discs on CAA agar lawn, overnight", "in_short": "as §1"}, "P. aeruginosa NCTC 13921": {"tested_on": "P. aeruginosa NCTC 13921", "details": "strain NCTC 13921; 0.3, 3 and 30 μg of protein spotted on discs on CAA agar lawn, overnight", "in_short": "as §1"}, "P. aeruginosa PAO1": {"tested_on": "P. aeruginosa PAO1", "details": "strain PAO1; 0.3, 3 and 30 μg of protein spotted on discs on CAA agar lawn, overnight", "in_short": "as §1"}, "P. aeruginosa Pr335": {"tested_on": "P. aeruginosa Pr335", "details": "strain Pr335; 0.3, 3 and 30 μg of protein spotted on discs on CAA agar lawn, overnight", "in_short": "as §1"}}, "data": [{"molecule": "S5-PmnH (protein, Chimeric S5-PmnH) MSNDNEVPGSMVIVAQGPDDQYAYEVPPIDSAAVAGNMFGDLIQREIYLQKNIYYPVRSIFEQGTKEKKEINKKVSDQVDGLLKQITQGKREATRQERVDVMSAVLHKMESDLEGYKKTFTKGPFIDYEKQSSLSIYEAWVKIWEKNSWEERKKYPFQQLVRDELERAVAYYKQDSLSEAVKVLRQELNKQKALKEKEDLSQLERDYRTRKANLEMKVQSELDQAGSALPPLVSPTPEQWLERATRLVTQAIADKKQLQTTNNTLIKNSPTPLEKQKAIYNGELLVDEIASLQARLVKLNAETTRRRTEKELTPDEKAAYTDAVSFVSTANEQMLQKYGANLSKVAQDMQAEIAGKKVRSYAEAMATFEKISANPAMKLNALDTQAVVDALNALDKASFADNITRLGKAFGVVGKVVQAEAIREKTVSGFQTGDWKPLMLELEAMAVGTGAGILLATSMAFFFPVFASAAAGVVVVALMMAATAAYFDAAKVDEINNLILN", "values": [{"measurement": "Activity in agar disc-diffusion assay", "setting": "P. aeruginosa 13-18499", "result": "** (activity detected with 3 μg of protein)"}, {"measurement": "Activity in agar disc-diffusion assay", "setting": "P. aeruginosa ATCC 29260", "result": "*** (activity detected with 0.3 μg of protein)"}, {"measurement": "Activity in agar disc-diffusion assay", "setting": "P. aeruginosa BI80", "result": "*** (activity detected with 0.3 μg of protein)"}, {"measurement": "Activity in agar disc-diffusion assay", "setting": "P. aeruginosa BR79", "result": "** (activity detected with 3 μg of protein)"}, {"measurement": "Activity in agar disc-diffusion assay", "setting": "[1]", "result": "*** (activity detected with 0.3 μg of protein)"}, {"measurement": "Activity in agar disc-diffusion assay", "setting": "P. aeruginosa Bu002", "result": "*** (activity detected with 0.3 μg of protein)"}, {"measurement": "Activity in agar disc-diffusion assay", "setting": "P. aeruginosa EY76", "result": "*** (activity detected with 0.3 μg of protein)"}, {"measurement": "Activity in agar disc-diffusion assay", "setting": "P. aeruginosa HP1", "result": "*** (activity detected with 0.3 μg of protein)"}, {"measurement": "Activity in agar disc-diffusion assay", "setting": "P. aeruginosa HP41", "result": "*** (activity detected with 0.3 μg of protein)"}, {"measurement": "Activity in agar disc-diffusion assay", "setting": "P. aeruginosa HP6", "result": "*** (activity detected with 0.3 μg of protein)"}, {"measurement": "Activity in agar disc-diffusion assay", "setting": "P. aeruginosa HP75", "result": "** (activity detected with 3 μg of protein)"}, {"measurement": "Activity in agar disc-diffusion assay", "setting": "P. aeruginosa NCTC 13437", "result": "* (activity detected only with 30 μg of protein)"}, {"measurement": "Activity in agar disc-diffusion assay", "setting": "P. aeruginosa NCTC 13921", "result": "*** (activity detected with 0.3 μg of protein)"}, {"measurement": "Activity in agar disc-diffusion assay", "setting": "P. aeruginosa PAO1", "result": "*** (activity detected with 0.3 μg of protein)"}, {"measurement": "Activity in agar disc-diffusion assay", "setting": "P. aeruginosa Pr335", "result": "*** (activity detected with 0.3 μg of protein)"}]}]}
